Experimental data reported in publication PMC10786891, “Massively parallel profiling of RNA-targeting CRISPR-Cas13d”.
Positions count from the first letter of the chain named. Names and notes keep the numbering of the source.

T1: EsCas13d, nuclease-dead (Eubacterium siraeum, UniProt B0MS50, R295A;H300A;R849A;H854A)
T1 sequence: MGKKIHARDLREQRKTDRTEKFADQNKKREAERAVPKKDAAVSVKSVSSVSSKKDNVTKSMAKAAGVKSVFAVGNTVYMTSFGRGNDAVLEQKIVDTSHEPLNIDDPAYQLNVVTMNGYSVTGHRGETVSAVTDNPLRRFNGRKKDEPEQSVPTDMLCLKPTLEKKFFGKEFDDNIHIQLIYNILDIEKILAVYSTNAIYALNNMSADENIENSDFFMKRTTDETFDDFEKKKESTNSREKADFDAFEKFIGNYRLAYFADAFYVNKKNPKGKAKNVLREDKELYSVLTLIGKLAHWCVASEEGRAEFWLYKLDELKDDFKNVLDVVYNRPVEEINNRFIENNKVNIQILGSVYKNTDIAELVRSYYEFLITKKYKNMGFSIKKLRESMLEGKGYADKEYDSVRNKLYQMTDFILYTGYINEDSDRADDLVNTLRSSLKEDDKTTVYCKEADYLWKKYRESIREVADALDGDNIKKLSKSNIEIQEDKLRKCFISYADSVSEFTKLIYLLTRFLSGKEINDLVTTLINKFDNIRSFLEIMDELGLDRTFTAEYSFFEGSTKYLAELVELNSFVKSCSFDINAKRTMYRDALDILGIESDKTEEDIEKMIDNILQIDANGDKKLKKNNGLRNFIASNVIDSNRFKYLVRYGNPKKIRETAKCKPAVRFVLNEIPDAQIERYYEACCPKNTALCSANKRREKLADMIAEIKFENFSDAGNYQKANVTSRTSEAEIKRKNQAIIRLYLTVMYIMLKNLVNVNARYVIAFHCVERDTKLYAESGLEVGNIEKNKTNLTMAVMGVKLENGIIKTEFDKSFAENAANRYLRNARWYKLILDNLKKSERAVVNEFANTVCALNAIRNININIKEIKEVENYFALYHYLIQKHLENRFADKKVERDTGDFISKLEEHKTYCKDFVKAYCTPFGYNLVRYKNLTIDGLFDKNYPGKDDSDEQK

B1: target 1 insC 3' of 20,insU 3' of 14 (mixed)
RNA 1: CACCCGUGCAAAAAUGCAGGGGUCUAAAACUGAGCGGAUAACCUCUCUAUGG
RNA 2: GGGAAUGGAUCCACAUCUACGAAUUCGUACCACUAGAGAUGGUUAUCCGCUCACCGAGAUCGGAAGAGCACACGU
B2: target 1 C2U,U19G (mixed)
RNA 1: B1 RNA 1
RNA 2: GGGAAUGGAUCCACAUCUACGAAUUCGUACCAGAGAGAGGUUAUCCGCUUACCGAGAUCGGAAGAGCACACGU
B3: target 1 A1U,G5U (mixed)
RNA 1: B1 RNA 1
RNA 2: B2 RNA 2 with G33U, G47U, U50C, A51U
B4: target 1 insG 3' of 19,insA 3' of 19 (mixed)
RNA 1: B1 RNA 1
RNA 2: B1 RNA 2 with C33U, U34G, G36A, A37G, G38A, A39G, U40A
B5: target 1 insA 3' of 8,insU 3' of 5 (mixed)
RNA 1: B1 RNA 1
RNA 2: GGGAAUGGAUCCACAUCUACGAAUUCGUACCAUAGAGAGGUUAUACCGUCUCACCGAGAUCGGAAGAGCACACGU
B6: target 1 insG 3' of 22,insA 3' of 19 (mixed)
RNA 1: B1 RNA 1
RNA 2: B1 RNA 2 with C31G, A32C, C33A, G36A, A37G, G38A, A39G, U40A
B7: target 1 C2A,U8C (mixed)
RNA 1: B1 RNA 1
RNA 2: B2 RNA 2 with G33U, U44C, U50A
B8: target 1 C7A,C21U (mixed)
RNA 1: B1 RNA 1
RNA 2: B2 RNA 2 with C31U, G33U, C45A, U50C
B9: target 1 insC 3' of 16,insG 3' of 3 (mixed)
RNA 1: B1 RNA 1
RNA 2: GGGAAUGGAUCCACAUCUACGAAUUCGUACCAUAGACGAGGUUAUCCGCUGCACCGAGAUCGGAAGAGCACACGU
B10: target 1 C6A,A14U (mixed)
RNA 1: B1 RNA 1
RNA 2: B2 RNA 2 with G33U, A38U, C46A, U50C
B11: target 1 C6G,A20U (mixed)
RNA 1: B1 RNA 1
RNA 2: B2 RNA 2 with A32U, G33U, C46G, U50C
B12: target 1 insC 3' of 22,insC 3' of 18 (mixed)
RNA 1: B1 RNA 1
RNA 2: B1 RNA 2 with A32C, C33A, G36C, A37G, G38A, A39G, U40A
B13: target 1 insU 3' of 14,insG 3' of 3 (mixed)
RNA 1: B1 RNA 1
RNA 2: B9 RNA 2 with C37G, G38A, A39U
B14: target 1 insG 3' of 8,insG 3' of 8 (mixed)
RNA 1: B1 RNA 1
RNA 2: B5 RNA 2 with A45G, C46G, G48C, U49G
B15: target 1 insU 3' of 15,insG 3' of 4 (mixed)
RNA 1: B1 RNA 1
RNA 2: B9 RNA 2 with C37G, G38U, U50G, G51U
B16: target 1 insU 3' of 15,insG 3' of 9 (mixed)
RNA 1: B1 RNA 1
RNA 2: B9 RNA 2 with C37G, G38U, U45G, C46U, G48C, C49G, U50C, G51U

These binders were tested against T1, EsCas13d, nuclease-dead (assay: crRNA (strand 1, pre-loaded); Mg2+; 40 mM Tris-HCl pH 7.5, 150 mM NaCl, 6 mM MgCl2, 1 mM DTT, 0.1% Tween-20, 0.2 mg/ml BSA; 25 C; 10 min per concentration, then washed). Settings: tags: His6-TwinStrep-SUMO cleaved; N-terminal SNAP kept (SNAP-Surface 488); label: 3' end held by stalled T7 RNA polymerase.

With B1 as the binder, how does the Kd read?
The Kd was 0.0055 ± 0.0008 µM.

With B2 as the binder, how does the Kd read?
The Kd was 0.052 ± 0.004 µM.

How did the Kd turn out when B3 was run?
Its Kd is 0.073 ± 0.011 µM.

For B4, which Kd is on record?
The Kd was 0.05 ± 0.007 µM.

How did the Kd turn out when B5 was run?
Its Kd is 0.022 ± 0.0018 µM.

Which Kd does the source give for B6 here?
The Kd was 0.063 ± 0.01 µM.

For B7, which Kd is on record?
Its Kd is 0.0052 ± 0.0004 µM.

Which Kd does the source give for B8 here?
Its Kd is 0.00656 ± 0.00031 µM.

B9 was tested. Which Kd did it give?
Its Kd is 0.05 ± 0.008 µM.

With B10 as the binder, how does the Kd read?
The Kd was 0.054 ± 0.009 µM.

With B11 as the binder, how does the Kd read?
Its Kd is 0.0405 ± 0.0025 µM.

How did the Kd turn out when B12 was run?
The Kd was 0.041 ± 0.016 µM.

How did the Kd turn out when B13 was run?
The Kd was 0.034 ± 0.004 µM.

How did the Kd turn out when B14 was run?
The Kd was 0.0453 ± 0.0032 µM.

How did the Kd turn out when B15 was run?
Its Kd is 0.0135 ± 0.0013 µM.

B16 was tested. Which Kd did it give?
Its Kd is 0.013 ± 0.0006 µM.
